Assay results: PMC3117669 (The Biochemical journal, 2010)
Values joined by “and” are separate entries in the source; they are usually repeats but may differ in a detail not shown here. Equal values may be shown once. One block for each binder: values may come before it.

Assays:
GST-lipin 1b (1-641) = target: T1, GST-lipin 1b (1-641) (mouse, UniProt Q91ZP3 1-641); assay: pull-down
T1 sequence (looked up): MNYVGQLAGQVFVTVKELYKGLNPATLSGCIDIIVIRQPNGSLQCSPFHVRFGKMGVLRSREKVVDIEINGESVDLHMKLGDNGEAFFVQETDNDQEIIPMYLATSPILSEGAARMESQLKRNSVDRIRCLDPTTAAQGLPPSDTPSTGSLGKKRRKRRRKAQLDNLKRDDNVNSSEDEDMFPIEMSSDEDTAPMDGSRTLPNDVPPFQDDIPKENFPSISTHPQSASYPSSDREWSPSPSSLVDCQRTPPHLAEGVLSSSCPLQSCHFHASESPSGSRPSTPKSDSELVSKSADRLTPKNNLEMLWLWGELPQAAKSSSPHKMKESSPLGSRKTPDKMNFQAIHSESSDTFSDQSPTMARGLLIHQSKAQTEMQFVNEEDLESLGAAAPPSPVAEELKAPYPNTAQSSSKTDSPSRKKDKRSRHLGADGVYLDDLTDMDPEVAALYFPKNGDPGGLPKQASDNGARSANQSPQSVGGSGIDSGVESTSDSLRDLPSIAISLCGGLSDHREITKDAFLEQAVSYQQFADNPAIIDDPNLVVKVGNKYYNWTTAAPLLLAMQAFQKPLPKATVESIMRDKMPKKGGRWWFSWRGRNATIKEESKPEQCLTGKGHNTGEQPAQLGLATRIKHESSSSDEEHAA

native gel or EMSA = target: the molecule itself; assay: native gel or EMSA
[1] = target: T2, V5-lipin 1b (469-924), immunopurified (mouse, UniProt Q91ZP3 469-924); assay: pull-down
T2 sequence (looked up): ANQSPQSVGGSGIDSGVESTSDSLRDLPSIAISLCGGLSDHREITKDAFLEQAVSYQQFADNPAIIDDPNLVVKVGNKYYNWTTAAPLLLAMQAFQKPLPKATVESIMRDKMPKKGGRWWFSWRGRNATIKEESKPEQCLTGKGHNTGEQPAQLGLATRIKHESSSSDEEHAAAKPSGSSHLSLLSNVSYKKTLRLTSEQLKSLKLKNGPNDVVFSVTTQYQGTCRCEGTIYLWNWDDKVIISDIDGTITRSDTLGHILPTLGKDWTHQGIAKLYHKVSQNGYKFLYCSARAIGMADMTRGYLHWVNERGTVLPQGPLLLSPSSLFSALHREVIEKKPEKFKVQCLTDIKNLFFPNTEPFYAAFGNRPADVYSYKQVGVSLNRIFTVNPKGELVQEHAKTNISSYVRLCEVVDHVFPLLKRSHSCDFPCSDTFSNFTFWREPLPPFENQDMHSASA

binding result (GST-lipin 1b (1-641)): binds
B1: V5-lipin 1b (1-171), immunopurified (domain or fragment, mouse, UniProt Q91ZP3 1-171, looked up)
chain: MNYVGQLAGQVFVTVKELYKGLNPATLSGCIDIIVIRQPNGSLQCSPFHVRFGKMGVLRSREKVVDIEINGESVDLHMKLGDNGEAFFVQETDNDQEIIPMYLATSPILSEGAARMESQLKRNSVDRIRCLDPTTAAQGLPPSDTPSTGSLGKKRRKRRRKAQLDNLKRDD

B2: lipin 1b-V5 (HEK293A) (natural protein, mouse, UniProt Q91ZP3 1-924, looked up)
chain: MNYVGQLAGQVFVTVKELYKGLNPATLSGCIDIIVIRQPNGSLQCSPFHVRFGKMGVLRSREKVVDIEINGESVDLHMKLGDNGEAFFVQETDNDQEIIPMYLATSPILSEGAARMESQLKRNSVDRIRCLDPTTAAQGLPPSDTPSTGSLGKKRRKRRRKAQLDNLKRDDNVNSSEDEDMFPIEMSSDEDTAPMDGSRTLPNDVPPFQDDIPKENFPSISTHPQSASYPSSDREWSPSPSSLVDCQRTPPHLAEGVLSSSCPLQSCHFHASESPSGSRPSTPKSDSELVSKSADRLTPKNNLEMLWLWGELPQAAKSSSPHKMKESSPLGSRKTPDKMNFQAIHSESSDTFSDQSPTMARGLLIHQSKAQTEMQFVNEEDLESLGAAAPPSPVAEELKAPYPNTAQSSSKTDSPSRKKDKRSRHLGADGVYLDDLTDMDPEVAALYFPKNGDPGGLPKQASDNGARSANQSPQSVGGSGIDSGVESTSDSLRDLPSIAISLCGGLSDHREITKDAFLEQAVSYQQFADNPAIIDDPNLVVKVGNKYYNWTTAAPLLLAMQAFQKPLPKATVESIMRDKMPKKGGRWWFSWRGRNATIKEESKPEQCLTGKGHNTGEQPAQLGLATRIKHESSSSDEEHAAAKPSGSSHLSLLSNVSYKKTLRLTSEQLKSLKLKNGPNDVVFSVTTQYQGTCRCEGTIYLWNWDDKVIISDIDGTITRSDTLGHILPTLGKDWTHQGIAKLYHKVSQNGYKFLYCSARAIGMADMTRGYLHWVNERGTVLPQGPLLLSPSSLFSALHREVIEKKPEKFKVQCLTDIKNLFFPNTEPFYAAFGNRPADVYSYKQVGVSLNRIFTVNPKGELVQEHAKTNISSYVRLCEVVDHVFPLLKRSHSCDFPCSDTFSNFTFWREPLPPFENQDMHSASA
stoichiometry N (native gel or EMSA): 2 and 4

binding result [1]: binds
B3: GST-lipin 1b (642-924) (domain or fragment, mouse, UniProt Q91ZP3 642-924, looked up)
chain: AKPSGSSHLSLLSNVSYKKTLRLTSEQLKSLKLKNGPNDVVFSVTTQYQGTCRCEGTIYLWNWDDKVIISDIDGTITRSDTLGHILPTLGKDWTHQGIAKLYHKVSQNGYKFLYCSARAIGMADMTRGYLHWVNERGTVLPQGPLLLSPSSLFSALHREVIEKKPEKFKVQCLTDIKNLFFPNTEPFYAAFGNRPADVYSYKQVGVSLNRIFTVNPKGELVQEHAKTNISSYVRLCEVVDHVFPLLKRSHSCDFPCSDTFSNFTFWREPLPPFENQDMHSASA
